{
  "source": "the RNAGym collection of RNA variant scans (doi:10.7554/elife.80360)",
  "parents": {"B1": {"name": "HDV Ribozyme (parent)", "chain": "GGCCGGCAUGGUCCCAGCCUCCUCGCUGGCGCCGGCUGGGCAACAUUCCGAGGGGACCGUCCCCUCGGUAAUGGCGAAUGGGACCCA"}},
  "data": [
    {"variants_of": "B1", "assay": "self-cleavage, relative activity (ratio to wild type); higher = more cleavage; co-transcriptional", "values": [
      {"variant": "GGCCGGCAUGGUCCCAGCCUCCUCGCUGGCGCCGGCUGGGCAACAUUCCGAGGGGACUGUCCCCUCGGUAAUGUCGAAUGGGACCCA", "note": "[C58U G74U]", "self-cleavage": 0.51},
      {"variant": "GGCCGGCAUGGUCCCAGCCUCCUCGCUGGCGCCGGCUGGGCAACAUUCCGAGGGGACUGUCCCCUCGGUAAUGCCGAAUGGGACCCA", "note": "[C58U G74C]", "self-cleavage": 0.227},
      {"variant": "GGCCGGCAUGGUCCCAGCCUCCUCGCUGGCGCCGGCUGGGCAACAUUCCGAGGGGACUGUCCCCUCGGUAAUGGCGAAUAGGACCCA", "note": "[C58U G80A]", "self-cleavage": 0.372},
      {"variant": "GGCCGGCAUGGUCCCAGCCUCCUCGCUGGCGCCGGCUGGGCAACAUUCCGAGGGGACUGUCCCCUCGGUAAUGGCGAAUCGGACCCA", "note": "[C58U G80C]", "self-cleavage": 0.203},
      {"variant": "GGCCGGCAUGGUCCCAGCCUCCUCGCUGGCGCCGGCUGGGCAACAUUCCGAGGGGACCAUCCUCUCGGUAAUGGCGAAUGGGACCCA", "note": "[G59A C63U]", "self-cleavage": 1.13},
      {"variant": "GGCCGGCAUGGUCCCAGCCUCCUCGCUGGCGCCGGCUGGGCAACAUUCCGAGGGGACCAUCCGCUCGGUAAUGGCGAAUGGGACCCA", "note": "[G59A C63G]", "self-cleavage": 0.805},
      {"variant": "GGCCGGCAUGGUCCCAGCCUCCUCGCUGGCGCCGGCUGGGCAACAUUCCGAGGGGACUGUCCCCUCGGUAAUCGCGAAUGGGACCCA", "note": "[C58U G73C]", "self-cleavage": 0.608},
      {"variant": "GGCCGGCAUGGUCCCAGCCUCCUCGCUGGCGCCGGCUGGGCAACAUUCCGAGGGGACUGUCCCCUCGGUAAUUGCGAAUGGGACCCA", "note": "[C58U G73U]", "self-cleavage": 0.343},
      {"variant": "GGCCGGCAUGGUCCCAGCCUCCUCGCUGGCGCCGGCUGGGCAACAUUCCGAGGGGACCAUCCCCUCGGUAUUGGCGAAUGGGACCCA", "note": "[G59A A71U]", "self-cleavage": 0.929},
      {"variant": "GGCCGGCAUGGUCCCAGCCUCCUCGCUGGCGCCGGCUGGGCAACAUUCCGAGGGGACCAUCCCCUCGGUAGUGGCGAAUGGGACCCA", "note": "[G59A A71G]", "self-cleavage": 0.984},
      {"variant": "GGCCGGCAUGGUCCCAGCCUCCUCGCUGGCGCCGGCUGGGCAACAUUCCGAGGGGACUGUCCCCUCUGUAAUGGCGAAUGGGACCCA", "note": "[C58U G67U]", "self-cleavage": 1.12},
      {"variant": "GGCCGGCAUGGUCCCAGCCUCCUCGCUGGCGCCGGCUGGGCAACAUUCCGAGGGGACCAUCCCCUCGGUAAUGCCGAAUGGGACCCA", "note": "[G59A G74C]", "self-cleavage": 0.198},
      {"variant": "GGCCGGCAUGGUCCCAGCCUCCUCGCUGGCGCCGGCUGGGCAACAUUCCGAGGGGACCAUCCCCUCGGUAAUGGCGUAUGGGACCCA", "note": "[G59A A77U]", "self-cleavage": 0.574},
      {"variant": "GGCCGGCAUGGUCCCAGCCUCCUCGCUGGCGCCGGCUGGGCAACAUUCCGAGGGGACUGUCCCCACGGUAAUGGCGAAUGGGACCCA", "note": "[C58U U65A]", "self-cleavage": 1.17},
      {"variant": "GGCCGGCAUGGUCCCAGCCUCCUCGCUGGCGCCGGCUGGGCAACAUUCCGAGGGGACCAUCCCCUCCGUAAUGGCGAAUGGGACCCA", "note": "[G59A G67C]", "self-cleavage": 1.05},
      {"variant": "GGCCGGCAUGGUCCCAGCCUCCUCGCUGGCGCCGGCUGGGCAACAUUCCGAGGGGACCAUCCCCUCGGUAAUGGCGAAUGGGACCCU", "note": "[G59A A87U]", "self-cleavage": 0.974},
      {"variant": "GGCCGGCAUGGUCCCAGCCUCCUCGCUGGCGCCGGCUGGGCAACAUUCCGAGGGGACCAUCCCCUCGGUAAUGGCGAAUGGGACUCA", "note": "[G59A C85U]", "self-cleavage": 0.796},
      {"variant": "GGCCGGCAUGGUCCCAGCCUCCUCGCUGGCGCCGGCUGGGCAACAUUCCGAGGGGACUGUCCCCUCGGUAAUGGGGAAUGGGACCCA", "note": "[C58U C75G]", "self-cleavage": 0.116},
      {"variant": "GGCCGGCAUGGUCCCAGCCUCCUCGCUGGCGCCGGCUGGGCAACAUUCCGAGGGGACCAUCCCCUCGGUAAUGGCGAAUGGGAGCCA", "note": "[G59A C84G]", "self-cleavage": 0.597},
      {"variant": "GGCCGGCAUGGUCCCAGCCUCCUCGCUGGCGCCGGCUGGGCAACAUUCCGAGGGGACUGUCCCCUCGGUAAUGGCGAAGGGGACCCA", "note": "[C58U U79G]", "self-cleavage": 0.612},
      {"variant": "GGCCGGCAUGGUCCCAGCCUCCUCGCUGGCGCCGGCUGGGCAACAUUCCGAGGGGACUGUCCCCUCGGUAAUGGCGAACGGGACCCA", "note": "[C58U U79C]", "self-cleavage": 0.38},
      {"variant": "GGCCGGCAUGGUCCCAGCCUCCUCGCUGGCGCCGGCUGGGCAACAUUCCGAGGGGACUGUCCCCUCGGUAAUGGCGAAUGGGACACA", "note": "[C58U C85A]", "self-cleavage": 1.13},
      {"variant": "GGCCGGCAUGGUCCCAGCCUCCUCGCUGGCGCCGGCUGGGCAACAUUCCGAGGGGACCAUCCCCUCGGUAAUGGCGAAUGGGACCCA", "note": "[G59A]", "self-cleavage": 1.02},
      {"variant": "GGCCGGCAUGGUCCCAGCCUCCUCGCUGGCGCCGGCUGGGCAACAUUCCGAGGGGACCAUCCCGUCGGUAAUGGCGAAUGGGACCCA", "note": "[G59A C64G]", "self-cleavage": 0.831},
      {"variant": "GGCCGGCAUGGUCCCAGCCUCCUCGCUGGCGCCGGCUGGGCAACAUUCCGAGGGGACCAUCCCUUCGGUAAUGGCGAAUGGGACCCA", "note": "[G59A C64U]", "self-cleavage": 0.903},
      {"variant": "GGCCGGCAUGGUCCCAGCCUCCUCGCUGGCGCCGGCUGGGCAACAUUCCGAGGGGACUGUCCCCUCGGUAAUGGCGAAUGGUACCCA", "note": "[C58U G82U]", "self-cleavage": 0.34},
      {"variant": "GGCCGGCAUGGUCCCAGCCUCCUCGCUGGCGCCGGCUGGGCAACAUUCCGAGGGGACCAUCCCCUCGGUAAUGGCGACUGGGACCCA", "note": "[G59A A78C]", "self-cleavage": 0.282},
      {"variant": "GGCCGGCAUGGUCCCAGCCUCCUCGCUGGCGCCGGCUGGGCAACAUUCCGAGGGGACCAUCCCCUCGGUAAUUGCGAAUGGGACCCA", "note": "[G59A G73U]", "self-cleavage": 0.267},
      {"variant": "GGCCGGCAUGGUCCCAGCCUCCUCGCUGGCGCCGGCUGGGCAACAUUCCGAGGGGACUGUCCCCUCGGCAAUGGCGAAUGGGACCCA", "note": "[C58U U69C]", "self-cleavage": 0.95},
      {"variant": "GGCCGGCAUGGUCCCAGCCUCCUCGCUGGCGCCGGCUGGGCAACAUUCCGAGGGGACUAUCCCCUCGGUAAUGGCGAAUGGGACCCA", "note": "[C58U G59A]", "self-cleavage": 1.12},
      {"variant": "GGCCGGCAUGGUCCCAGCCUCCUCGCUGGCGCCGGCUGGGCAACAUUCCGAGGGGACUCUCCCCUCGGUAAUGGCGAAUGGGACCCA", "note": "[C58U G59C]", "self-cleavage": 0.923},
      {"variant": "GGCCGGCAUGGUCCCAGCCUCCUCGCUGGCGCCGGCUGGGCAACAUUCCGAGGGGACCAUCUCCUCGGUAAUGGCGAAUGGGACCCA", "note": "[G59A C62U]", "self-cleavage": 1.22}
    ]}
  ]
}
